Data reported in patent US20080305187A1, “Use of Parathyroid Hormone for Treating Periodontal Disease and for Other Dental Applications” (priority 2005, published 2008).

What was measured:
[1] = test system: patient with adult periodontitis; experiment: Treatment of patient with periodontal disease prior to dental implant therapy; type: in vivo, human; details: person, 20 μg once-daily subcutaneous for 3 months prior to implant surgery
Excerpt: A person presents with a history of adult periodontitis. The patient has experienced significant alveolar bone loss confirmed radiographically, and has a number of tooth sites with pocket probing depth measurements of about 7 mm. The patient has discussed with their dentist possible extraction of severely-affected teeth and their replacement with dental implants, but the prospects for success are diminished in view of the bone loss that has occurred. Standard periodontal care is provided, including scaling and root planning, and those teeth with poor prognosis are extracted. Prior to implant surgery, the patient is administered 20 μg of hPTH(1-34) once-daily by subcutaneous injection for 3 months prior to implant surgery.

[2] = test system: systemic bone loss associated with osteoporosis; details: R. M. Neer et al., NEJM 2001; cited from earlier work

With `CC[C@H](C)[C@H](NC(=O)[C@H](CCC(=O)O)NC(=O)[C@H](CO)NC(=O)[C@@H](NC(=O)[C@@H](N)CO)C(C)C)C(=O)N[C@@H](CCC(N)=O)C(=O)N[C@@H](CC(C)C)C(=O)N[C@@H](CCSC)C(=O)N[C@@H](Cc1cnc[nH]1)C(=O)N[C@@H](CC(N)=O)C(=O)N[C@@H](CC(C)C)C(=O)NCC(=O)N[C@@H](CCCCN)C(=O)N[C@@H](Cc1cnc[nH]1)C(=O)N[C@@H](CC(C)C)C(=O)N[C@@H](CC(N)=O)C(=O)N[C@@H](CO)C(=O)N[C@@H](CCSC)C(=O)N[C@@H](CCC(=O)O)C(=O)N[C@@H](CCCN=C(N)N)C(=O)N[C@H](C(=O)N[C@@H](CCC(=O)O)C(=O)N[C@@H](Cc1c[nH]c2ccccc12)C(=O)N[C@@H](CC(C)C)C(=O)N[C@@H](CCCN=C(N)N)C(=O)N[C@@H](CCCCN)C(=O)N[C@@H](CCCCN)C(=O)N[C@@H](CC(C)C)C(=O)N[C@@H](CCC(N)=O)C(=O)N[C@@H](CC(=O)O)C(=O)N[C@H](C(=O)N[C@@H](Cc1cnc[nH]1)C(=O)N[C@@H](CC(N)=O)C(=O)N[C@@H](Cc1ccccc1)C(=O)O)C(C)C)C(C)C` [hPTH(1-34), human PTH(1-34)] the “complications post placement of the implants” value [1] was “No complications”.

B1: parathyroid hormone (peptide, UniProt P01270 32-115, looked up)
Parathyroid hormone: SVSEIQLMHNLGKHLNSMERVEWLRKKLQDVHNFVALGAPLAPRDAGSQRPRKKEDNVLVESHEKSLGEADKADVNVLTKAKSQ
modifications: Parathyroid hormone
In the case of B1, the BMD [2] is given as “increases BMD” and the “risk of vertebral and non-vertebral bone fracture” value [2] is given as “reduces the risk of vertebral and non-vertebral bone fracture”.
